The source of these data is patent US20110311585A1.

Holding throughout (test): cell-based or functional assay
In assay [1] the target is HIV-1 envelope glycoprotein gp160, clone 005 from subject 108051, Q655R mutant (HIV-1).
For assay [2], the target named is HIV-1 envelope glycoprotein gp160, clone 005 from subject 108069, Q655R mutant (HIV-1).
Assay [3] has as its target HIV-1 envelope glycoprotein gp160, clone 022 from subject 108060, Q655R mutant (HIV-1).
For assay [4], the target named is HIV-1 envelope glycoprotein gp160, clone 024 from subject 108060, R655Q mutant (HIV-1).

As for monoclonal antibody 2G12, the IC50, pseudovirus neutralization in assay [1], in assay [2], in assay [3] and in assay [4] was > 20 µg/mL each time.

On to “CD4-IgG (from UniProt P01730 26-205) (Fc fusion)”, for which the IC50, pseudovirus neutralization was 5.21 µg/mL in assay [1], 1.08 µg/mL in assay [2], 0.161 µg/mL in assay [3] and > 20 µg/mL in assay [4]. In addition, in assay [2], the fold increase in neutralization sensitivity against the parental virus was > 20 fold. Moreover, in assay [3], the fold increase in neutralization sensitivity against wild-type clone 022 was > 125 fold.

“broadly neutralizing, CD4 blocking monoclonal antibody (MAb) b12”: the IC50, pseudovirus neutralization in assay [1], in assay [2], in assay [3] and in assay [4] was > 20 µg/mL each time.

Regarding “broadly neutralizing monoclonal antibody 4E10”, the IC50, pseudovirus neutralization was 1.31 µg/mL in assay [1], 0.044 µg/mL in assay [2], 0.156 µg/mL in assay [3] and 6.55 µg/mL in assay [4]. This substance yielded a fold increase in neutralization sensitivity against wild-type clone 022 in assay [3] of 30 to 35 fold.

On to enfuvirtide (peptide), for which the IC50, pseudovirus neutralization in assay [1] turned out to be 0.036 µg/mL; in assay [2] it was 0.011 µg/mL; in assay [3] it was 0.004 µg/mL; in assay [4], 0.13 µg/mL. In addition, the fold increase in neutralization sensitivity against the parental virus in assay [2] is > 17 fold. In assay [3], this substance returned a fold increase in neutralization sensitivity against wild-type clone 022 of 17 fold.

In the case of “broadly neutralizing monoclonal antibody 2F5”, the IC50, pseudovirus neutralization turned out to be 0.343 µg/mL in assay [1], 0.052 µg/mL in assay [2], 0.093 µg/mL in assay [3] and 3.43 µg/mL in assay [4]. The same substance returned a fold increase in neutralization sensitivity against wild-type clone 022 in assay [3] of 30 to 35 fold.
